Reference: patent publication US5885797

Columns and labels:
[1] = target: Myf5 (full length, mouse) (mouse) (UniProt P24699)
NLSMyogenin (mouse) = NLSMyogenin (mouse) (UniProt P12979)
[2] = target: Myf5 (full length, mouse) (mouse) (UniProt P24699); remark: listed apart in the source
[3] = target: Myogenin (full length, mouse) (mouse) (UniProt P12979)
NLSMyf5 (mouse) = NLSMyf5 (mouse) (UniProt P24699)
[4] = target: Myf5 (full length, mouse) (mouse) (UniProt P24699); remark: listed apart in the source
[5] = target: MyoD (full length, mouse) (mouse) (UniProt P10085)
[6] = target: Myogenin (full length, mouse) (mouse) (UniProt P12979); remark: listed apart in the source
E12 [7] = target: E12
E12 [8] = assay: yeast one-hybrid, strain L40, β-galactosidase reporter
[9] = target: Myf5 (full length, mouse) (mouse) (UniProt P24699); assay: as above
[10] = target: MyoD (full length, mouse) (mouse) (UniProt P10085); assay: as above
[11] = target: T1, Lethal of Scute (AS-C T3) (Drosophila melanogaster (Fruit fly)) (UniProt P09774); assay: as above
T1 sequence: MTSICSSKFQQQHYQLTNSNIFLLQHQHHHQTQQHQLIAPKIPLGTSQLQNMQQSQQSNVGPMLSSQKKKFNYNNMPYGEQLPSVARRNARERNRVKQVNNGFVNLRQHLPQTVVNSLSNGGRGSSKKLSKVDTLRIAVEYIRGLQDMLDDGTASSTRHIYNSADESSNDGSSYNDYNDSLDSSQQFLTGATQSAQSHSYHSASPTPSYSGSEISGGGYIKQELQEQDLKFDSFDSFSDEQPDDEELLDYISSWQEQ

[12] = target: MyoDΔN-VP16 (Mus musculus (Mouse)) (UniProt P10085); assay: yeast two-hybrid, strain L40, β-galactosidase reporter
[13] = target: MyoDΔC-VP16 (Mus musculus (Mouse)) (UniProt P10085); assay: as above
[14] = target: Myf5 (full length, mouse) (mouse) (UniProt P24699); assay: yeast hybrid assay, strain L40, β-galactosidase reporter
VP16-I-mfa (mouse) [15] = target: T2, VP16-I-mfa (mouse); assay: as above
T2 sequence: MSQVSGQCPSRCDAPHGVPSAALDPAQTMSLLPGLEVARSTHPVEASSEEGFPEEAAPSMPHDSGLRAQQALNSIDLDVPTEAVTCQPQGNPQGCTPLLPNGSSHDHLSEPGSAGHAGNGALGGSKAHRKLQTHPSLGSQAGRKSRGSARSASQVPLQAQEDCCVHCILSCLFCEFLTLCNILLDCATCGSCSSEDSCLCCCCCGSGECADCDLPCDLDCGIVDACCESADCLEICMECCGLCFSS

[16] = target: VP16 (Human herpesvirus 1 (strain 17) (HHV-1) (Human herpes simplex virus 1)) (UniProt P06492); assay: as above
VP16-I-mfc (mouse) [17] = assay: as above
VP16-I-mfb (mouse) [18] = assay: as above
VP16-I-mfc (mouse) [19] = assay: yeast hybrid assay, strain L40, β-galactosidase reporter; this LexA fusion is also active with VP16 alone
VP16-I-mfb (mouse) [20] = assay: as above
[21] = target: Myf5 (full length, mouse) (mouse) (UniProt P24699); assay: as above
VP16-I-mfa (mouse) [22] = target: T2, VP16-I-mfa (mouse); assay: as above
[23] = target: full length Myf5 or myogenin; assay: yeast one-hybrid, strain L40, β-galactosidase reporter
[24] = target: Myogenin (full length, mouse) (mouse) (UniProt P12979); assay: as above
Myogenin (Mus musculus) = assay: cell_activity; conditions: NIH3T3
Myf5 (Mus musculus) = assay: cell_activity; conditions: NIH3T3
MyoD (Mus musculus) = assay: cell_activity; conditions: NIH3T3
E12 [25] = assay: cell_activity; conditions: NIH3T3; 76.3% with I-mfa

LexA-I-mfa, sequence (P0A7C2 other isoform, or with tags, fused parts or gaps limits assumed): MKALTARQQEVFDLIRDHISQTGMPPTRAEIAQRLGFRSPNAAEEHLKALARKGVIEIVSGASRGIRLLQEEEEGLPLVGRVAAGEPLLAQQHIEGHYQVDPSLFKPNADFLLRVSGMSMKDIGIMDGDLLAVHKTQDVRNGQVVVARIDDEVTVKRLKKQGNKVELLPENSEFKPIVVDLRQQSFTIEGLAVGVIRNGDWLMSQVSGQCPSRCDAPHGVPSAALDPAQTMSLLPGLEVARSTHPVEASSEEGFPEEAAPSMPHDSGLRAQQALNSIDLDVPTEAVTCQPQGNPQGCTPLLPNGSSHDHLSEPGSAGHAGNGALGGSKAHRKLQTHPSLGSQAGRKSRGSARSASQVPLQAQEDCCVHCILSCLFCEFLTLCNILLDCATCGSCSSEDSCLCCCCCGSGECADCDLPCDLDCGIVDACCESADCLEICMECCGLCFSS
LexA-I-mfb, sequence (P0A7C2 other isoform, or with tags, fused parts or gaps limits assumed): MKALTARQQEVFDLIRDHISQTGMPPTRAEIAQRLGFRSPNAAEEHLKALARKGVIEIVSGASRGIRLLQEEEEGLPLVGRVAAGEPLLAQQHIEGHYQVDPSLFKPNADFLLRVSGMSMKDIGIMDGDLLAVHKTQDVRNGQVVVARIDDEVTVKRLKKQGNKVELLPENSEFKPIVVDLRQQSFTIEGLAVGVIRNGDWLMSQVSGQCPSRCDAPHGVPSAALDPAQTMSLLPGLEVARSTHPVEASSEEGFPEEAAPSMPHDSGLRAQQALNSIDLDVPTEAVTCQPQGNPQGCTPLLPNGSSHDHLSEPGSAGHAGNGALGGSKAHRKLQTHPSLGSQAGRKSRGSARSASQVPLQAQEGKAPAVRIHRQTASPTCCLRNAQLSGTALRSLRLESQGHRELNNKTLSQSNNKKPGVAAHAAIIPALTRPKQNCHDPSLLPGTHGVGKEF
LexA-I-mfc, sequence (P0A7C2 other isoform, or with tags, fused parts or gaps limits assumed): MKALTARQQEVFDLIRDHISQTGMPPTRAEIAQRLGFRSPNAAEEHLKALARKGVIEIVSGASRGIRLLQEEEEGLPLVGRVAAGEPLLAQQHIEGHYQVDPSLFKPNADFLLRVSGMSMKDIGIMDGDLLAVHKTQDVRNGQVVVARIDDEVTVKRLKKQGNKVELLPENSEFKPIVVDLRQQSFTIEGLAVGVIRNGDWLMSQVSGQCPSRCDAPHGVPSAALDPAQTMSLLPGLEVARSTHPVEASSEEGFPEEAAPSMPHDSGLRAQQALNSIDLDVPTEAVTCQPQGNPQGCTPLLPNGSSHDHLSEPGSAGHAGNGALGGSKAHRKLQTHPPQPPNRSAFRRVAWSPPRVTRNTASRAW
LexA-I-mfa (203-246), sequence (P0A7C2 other isoform, or with tags, fused parts or gaps limits assumed): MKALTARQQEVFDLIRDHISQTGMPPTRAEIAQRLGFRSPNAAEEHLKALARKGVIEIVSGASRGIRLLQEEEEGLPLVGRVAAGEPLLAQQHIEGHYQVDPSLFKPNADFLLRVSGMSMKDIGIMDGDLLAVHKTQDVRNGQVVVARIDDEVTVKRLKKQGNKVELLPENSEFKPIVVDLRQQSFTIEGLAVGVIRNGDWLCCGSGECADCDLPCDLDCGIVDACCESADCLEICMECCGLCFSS
Myogenin (full length, mouse) (mouse), sequence (P12979 whole entry): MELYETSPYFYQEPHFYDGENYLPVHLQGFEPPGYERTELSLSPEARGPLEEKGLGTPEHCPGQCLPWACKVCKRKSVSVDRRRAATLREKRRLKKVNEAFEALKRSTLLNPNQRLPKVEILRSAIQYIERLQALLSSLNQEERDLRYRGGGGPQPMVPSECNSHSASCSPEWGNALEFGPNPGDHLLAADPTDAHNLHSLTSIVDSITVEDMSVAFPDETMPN
LexA-I-mfa (163-246), sequence (P0A7C2 other isoform, or with tags, fused parts or gaps limits assumed): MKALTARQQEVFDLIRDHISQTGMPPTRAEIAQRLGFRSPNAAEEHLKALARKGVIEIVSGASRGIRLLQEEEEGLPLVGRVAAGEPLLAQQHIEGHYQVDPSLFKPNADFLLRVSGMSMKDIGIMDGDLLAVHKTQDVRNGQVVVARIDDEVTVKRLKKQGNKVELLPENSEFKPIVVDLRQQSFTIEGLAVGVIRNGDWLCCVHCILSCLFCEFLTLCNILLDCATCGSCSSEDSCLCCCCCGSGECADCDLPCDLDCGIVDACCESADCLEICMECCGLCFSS
LexA, sequence (P0A7C2 whole entry): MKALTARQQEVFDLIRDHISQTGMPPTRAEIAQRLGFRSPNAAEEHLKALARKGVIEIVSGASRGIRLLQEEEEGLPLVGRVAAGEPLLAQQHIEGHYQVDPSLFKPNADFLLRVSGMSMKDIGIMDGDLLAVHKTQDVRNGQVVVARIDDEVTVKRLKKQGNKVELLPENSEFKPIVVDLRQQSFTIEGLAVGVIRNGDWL

HA-I-mfa
CAT (%) +Myf5, p4R-TK-CAT reporter, NIH3T3 [1]: 2% | Relative CAT Activity (%), experiment of Table 7 (NLSMyogenin (mouse)): 7.5% | Relative CAT Activity (%), experiment of Table 7 [2]: 0.1% | Relative CAT Activity (%), experiment of Table 7 [3]: 0.6% | Relative CAT Activity (%), experiment of Table 7 (NLSMyf5 (mouse)): 3.7% | Relative CAT Activity (%), p4R-TK-CAT, NIH3T3 [4]: 0.9% | Relative CAT Activity (%), p4R-TK-CAT, NIH3T3 [5]: 10.6% | Relative CAT Activity (%), p4R-TK-CAT, NIH3T3 [6]: 1.5%

HA-I-mfa (1-202)
CAT (%) +E12, p4R-TK-CAT reporter, NIH3T3 (E12 [7]): 113% | CAT (%) +Myf5, p4R-TK-CAT reporter, NIH3T3 [1]: 5%

HA-I-mfa (29-246)
CAT (%) +E12, p4R-TK-CAT reporter, NIH3T3 (E12 [7]): 81% | CAT (%) +Myf5, p4R-TK-CAT reporter, NIH3T3 [1]: 4%

HA-I-mfa (87-202)
CAT (%) +E12, p4R-TK-CAT reporter, NIH3T3 (E12 [7]): 89% | CAT (%) +Myf5, p4R-TK-CAT reporter, NIH3T3 [1]: 7%

HA-I-mfa (87-246)
CAT (%) +E12, p4R-TK-CAT reporter, NIH3T3 (E12 [7]): 53% | CAT (%) +Myf5, p4R-TK-CAT reporter, NIH3T3 [1]: 2%

HA-I-mfa (163-202)
CAT (%) +E12, p4R-TK-CAT reporter, NIH3T3 (E12 [7]): 98% | CAT (%) +Myf5, p4R-TK-CAT reporter, NIH3T3 [1]: 44%

HA-I-mfa (163-246)
CAT (%) +E12, p4R-TK-CAT reporter, NIH3T3 (E12 [7]): 18% | CAT (%) +Myf5, p4R-TK-CAT reporter, NIH3T3 [1]: 2%

HA-I-mfa (203-246)
CAT (%) +E12, p4R-TK-CAT reporter, NIH3T3 (E12 [7]): 93% | CAT (%) +Myf5, p4R-TK-CAT reporter, NIH3T3 [1]: 78%

HA-I-mfb
CAT (%) +E12, p4R-TK-CAT reporter, NIH3T3 (E12 [7]): 100% | CAT (%) +Myf5, p4R-TK-CAT reporter, NIH3T3 [1]: 74.5% | Relative CAT Activity (%), p4R-TK-CAT, NIH3T3 [4]: 94.8% | Relative CAT Activity (%), p4R-TK-CAT, NIH3T3 [5]: 96.5% | Relative CAT Activity (%), p4R-TK-CAT, NIH3T3 [6]: 82.7%

HA-I-mfc
CAT (%) +E12, p4R-TK-CAT reporter, NIH3T3 (E12 [7]): 99% | CAT (%) +Myf5, p4R-TK-CAT reporter, NIH3T3 [1]: 65% | Relative CAT Activity (%), p4R-TK-CAT, NIH3T3 [4]: 96.4% | Relative CAT Activity (%), p4R-TK-CAT, NIH3T3 [5]: 96.1% | Relative CAT Activity (%), p4R-TK-CAT, NIH3T3 [6]: 68%

LexA (from UniProt P0A7C2)
β-galactosidase activity (arbitrary units) (E12 [8]): 2.3 | β-galactosidase activity (arbitrary units) [9]: 0.9 | β-galactosidase activity (arbitrary units) [10]: 0.6 | β-galactosidase activity (arbitrary units) [11]: 1.6 | β-galactosidase activity (arbitrary units) [12]: 0.9 | β-galactosidase activity (arbitrary units) [13]: 0.6

LexA-I-mfa (1-202) (from UniProt P0A7C2)
β-galactosidase activity (arbitrary units) [14]: 34.5 | β-galactosidase activity (arbitrary units) (VP16-I-mfa (mouse) [15]): 95 | β-galactosidase activity (arbitrary units) [16]: < 0.1

LexA-I-mfa (29-246) (from UniProt P0A7C2)
β-galactosidase activity (arbitrary units) [14]: 84.7 | β-galactosidase activity (arbitrary units) (VP16-I-mfa (mouse) [15]): 10.1 | β-galactosidase activity (arbitrary units) [16]: 0.8

LexA-I-mfa (87-202) (from UniProt P0A7C2)
β-galactosidase activity (arbitrary units) [14]: 27.6 | β-galactosidase activity (arbitrary units) (VP16-I-mfa (mouse) [15]): 9.3 | β-galactosidase activity (arbitrary units) [16]: < 0.1

LexA-I-mfa (87-246) (from UniProt P0A7C2)
β-galactosidase activity (arbitrary units) (VP16-I-mfc (mouse) [17]): 0.7 | β-galactosidase activity (arbitrary units) [14]: 74.3 | β-galactosidase activity (arbitrary units) (VP16-I-mfa (mouse) [15]): 12.5 | β-galactosidase activity (arbitrary units) [16]: 0.8

LexA-I-mfa (163-246) (from UniProt P0A7C2)
β-galactosidase activity (arbitrary units) (VP16-I-mfc (mouse) [17]): 0.2 | β-galactosidase activity (arbitrary units) (VP16-I-mfb (mouse) [18]): 0.6 | β-galactosidase activity (arbitrary units) [14]: 71.3 | β-galactosidase activity (arbitrary units) (VP16-I-mfa (mouse) [15]): 3.8 | β-galactosidase activity (arbitrary units) [16]: 0.3

LexA-I-mfa (203-246) (from UniProt P0A7C2)
β-galactosidase activity (arbitrary units) [16]: 45.8 | β-galactosidase activity (arbitrary units) (VP16-I-mfc (mouse) [19]): 52.3 | β-galactosidase activity (arbitrary units) (VP16-I-mfb (mouse) [20]): 39.2 | β-galactosidase activity (arbitrary units) [21]: 57.2 | β-galactosidase activity (arbitrary units) (VP16-I-mfa (mouse) [22]): 95.2

LexA-I-mfa (from UniProt P0A7C2)
fold β-galactosidase activity over LexA-I-mfa alone [23]: 70 to 80 fold | β-galactosidase activity (arbitrary units) (E12 [8]): 2.3 | β-galactosidase activity (arbitrary units) [9]: 68.5 | fold β-galactosidase activity over the LexA-I-mfa control [10]: 5 fold | β-galactosidase activity (arbitrary units) [10]: 4.3 | β-galactosidase activity (arbitrary units) [24]: 63.6 | β-galactosidase activity (arbitrary units) [11]: 2.3 | β-galactosidase activity (arbitrary units) [14]: 66 | β-galactosidase activity (arbitrary units) (VP16-I-mfa (mouse) [15]): 6.4 | β-galactosidase activity (arbitrary units) [16]: 0.5 | β-galactosidase activity (arbitrary units) [12]: 96.4 | β-galactosidase activity (arbitrary units) [13]: 5.6

LexA-I-mfa(163-202) (from UniProt P0A7C2)
β-galactosidase activity (arbitrary units) (VP16-I-mfc (mouse) [17]): < 0.1 | β-galactosidase activity (arbitrary units) (VP16-I-mfb (mouse) [18]): 0.2 | β-galactosidase activity (arbitrary units) [14]: 57.1 | β-galactosidase activity (arbitrary units) (VP16-I-mfa (mouse) [15]): 4.3

LexA-I-mfb (from UniProt P0A7C2)
β-galactosidase activity (arbitrary units) (E12 [8]): 0.6 | β-galactosidase activity (arbitrary units) [9]: 0.4 | β-galactosidase activity (arbitrary units) [10]: 1.1 | β-galactosidase activity (arbitrary units) (VP16-I-mfb (mouse) [18]): < 0.1 | β-galactosidase activity (arbitrary units) [14]: < 0.1 | β-galactosidase activity (arbitrary units) (VP16-I-mfa (mouse) [15]): 0.2 | β-galactosidase activity (arbitrary units) [16]: < 0.1

LexA-I-mfc (from UniProt P0A7C2)
β-galactosidase activity (arbitrary units) (E12 [8]): 1.4 | β-galactosidase activity (arbitrary units) [10]: 0.4 | β-galactosidase activity (arbitrary units) [11]: 0.1 | β-galactosidase activity (arbitrary units) (VP16-I-mfc (mouse) [17]): < 0.1 | β-galactosidase activity (arbitrary units) (VP16-I-mfa (mouse) [15]): < 0.1 | β-galactosidase activity (arbitrary units) [16]: < 0.1

MCK-CAT reporter, 3.3 kb MCK promoter
activity (Myogenin (Mus musculus); reduced to 2% by I-mfa, text names p4R-TK-CAT but Table 6 MCK-CAT): 33000 CAT units | activity (Myf5 (Mus musculus); reduced to 9% by I-mfa, text names p4R-TK-CAT but Table 6 MCK-CAT): 79500 CAT units | activity (MyoD (Mus musculus); reduced to 27% by I-mfa, text names p4R-TK-CAT but Table 6 MCK-CAT): 37200 CAT units

p4R-TK-CAT reporter, four oligomerized MyoD binding sites (E boxes)
activity (Myogenin (Mus musculus); reduced to 1.5% by I-mfa): 17400 CAT units | activity (E12 [25]): 53600 CAT units | activity (Myf5 (Mus musculus); reduced to 0.9% by I-mfa): 53100 CAT units | activity (MyoD (Mus musculus); reduced to 10.6% by I-mfa): 55400 CAT units
